Reference: patent US20240279355A1 (Hoffmann-La Roche, published 2024)

Experiments:
[1] = biological target: T1, human STEAP-1 (six-transmembrane epithelial antigen of prostate 1) (human, UniProt Q9UHE8 1-339); assay: flow cytometry on CHO-K1 cells stably transfected with full-length human STEAP1, PerCP anti-human IgG secondary
T1 construct: Full-length human STEAP1 stably expressed on CHO-K1 cells (CHO-hSTEAP1); endogenous on LnCAP and 22Rv1 cells in the functional assays; also called hSTEAP-1
Text: A gene encoding full-length human STEAP1 was subcloned into mammalian expression vector. The plasmid was transfected into CHO-K1 (ATCC CRL-9618) cells using Lipofectamine LTX Reagent according to the manufacturer's protocol (Invitrogen, #15338100). Stably transfected STEAP1-positive CHO cells were maintained in DMEM/F-12 medium (Gibco, #11320033) supplemented with 10% fetal bovine serum (Gibco, #16140063) and 1% GlutaMAX Supplement (Gibco; #31331-028). Two days after transfection, puromycin (Invivogen; #ant-pr-1) was added to 6 μg/mL and the cells were cultured for several passages. After initial selection, the cells with the highest cell surface expression of STEAP1 were sorted by BD FACSAria II cell sorter (BD Biosciences) and cultured to establish stable cell clones. The expression level and stability was confirmed by FACS analysis using vandortuzumab and PerCP-conjugated Fc gamma-specific goat anti-human IgG (Jackson ImmunoResearch, #109-126-097) as secondary antibody over a period of 4 weeks.

[2] = biological target: FcRn (neonatal Fc receptor); assay: FcRn affinity chromatography, pH gradient elution; retention time compared to protein standards with known affinities
Method: FcRn was expressed, purified and biotinylated as described (Schlothauer et al., MAbs (2013) 5(4), 576-86). For coupling, the prepared receptor was added to streptavidin-sepharose (GE Healthcare). The resulting FcRn-sepharose matrix was packed in a column housing. The column was equilibrated with 20 mM 2-(N-morpholine)-ethanesulfonic acid (MES), 140 mM NaCl, pH 5.5 (eluent A) at a 0.5 ml/min flow rate. 30 μg of antibody samples were diluted at a volume ratio of 1:1 with eluent A and applied to the FcRn column. The column was washed with 5 column volumes of eluent A followed by elution with a linear gradient from 20 to 100% 20 mM Tris/HCl, 140 mM NaCl, pH 8.8 (eluent B) in 35 column volumes. The analysis was performed with a column oven at 25° C. The elution profile was monitored by continuous measurement of the absorbance at 280 nm. Retention times were compared to protein standards with known affinities.

[3] = biological target: T1, human STEAP-1 (six-transmembrane …); assay: cell-based ELISA on CHO-K1 cells stably expressing human STEAP1; binding EC50 of the stressed sample against the untreated sample x100
Method: Characterization of Binding Potency After Stress Using a Cell-Based ELISA To quantify the reduction in binding potency caused by 1-4 weeks stress at either pH 7.4 or 6.0, a cell-based ELISA was employed using CHO-K1 cells stably expressing human STEAP1. For this cell-based ELISA, 10,000 cells were seeded per well of a 96-well plate and incubated for 18 h at 37° C., 5% CO₂. Supernatant was removed using an automated washer (BIOTEK), and 100 μl of a dilution series (10 pM-30 nM) of antibody constructs in growth medium was added to each well. After 1 h of incubation at 4° C., wells were emptied and 100 μl of 0.05% glutaraldehyde in PBS added for 10 min at RT. After 4 washes with PBS/0.025% Tween20 (PBST), 100 μl of anti-human-IgG-HRP (Jackson) diluted 1:20000 in Blocking buffer (Roche) was added and plates incubated for 1 h at room temperature (RT). Wells were washed 6 times with PBST and signal was generated using 100 μl of TMB per well, the reaction stopped after 10 minutes with 50 μl 1 M HCl and absorbance measured at 450 nm. Data (Table 4) were expressed as “% binding”, dividing the binding EC50 of the stressed sample by that of the untreated sample multiplied by 100.

Sequence of FcRn (neonatal Fc receptor) (P55899 24-297, chain 1 of 2): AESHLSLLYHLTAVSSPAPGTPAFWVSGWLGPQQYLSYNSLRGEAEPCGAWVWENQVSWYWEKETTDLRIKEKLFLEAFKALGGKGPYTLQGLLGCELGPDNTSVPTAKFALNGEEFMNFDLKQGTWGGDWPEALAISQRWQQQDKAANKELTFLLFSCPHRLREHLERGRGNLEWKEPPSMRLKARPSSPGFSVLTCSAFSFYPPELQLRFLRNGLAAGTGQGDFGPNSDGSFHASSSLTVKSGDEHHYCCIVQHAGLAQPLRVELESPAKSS
Sequence of FcRn (neonatal Fc receptor) (P61769 21-119, chain 2 of 2, further chain): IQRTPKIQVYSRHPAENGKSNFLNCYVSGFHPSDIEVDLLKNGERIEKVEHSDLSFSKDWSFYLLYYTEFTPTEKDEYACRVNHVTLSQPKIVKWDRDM
T1 sequence (Q9UHE8 whole entry): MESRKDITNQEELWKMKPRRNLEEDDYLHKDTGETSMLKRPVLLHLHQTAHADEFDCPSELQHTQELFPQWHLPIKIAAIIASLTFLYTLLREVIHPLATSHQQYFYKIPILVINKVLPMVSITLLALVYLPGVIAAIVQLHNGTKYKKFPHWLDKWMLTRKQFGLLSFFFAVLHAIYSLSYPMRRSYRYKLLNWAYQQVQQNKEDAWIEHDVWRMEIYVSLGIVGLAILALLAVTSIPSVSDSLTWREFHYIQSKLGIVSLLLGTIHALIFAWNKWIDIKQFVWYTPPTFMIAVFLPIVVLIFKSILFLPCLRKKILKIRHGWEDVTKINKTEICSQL

Row | Binder | binding result [1] | FcRn affinity [2] | Relative binding potency (%) (after 28 days at 40° C., pH 6) [3]
1 | vandortuzumab (antibody, V domains shown) VH: EVQLVESGGGLVQPGGSLRLSCAVSGYSITSDYAWNWVRQAPGKGLEWVGYISNSGSTSYNPSLKSRFTISRDTSKNTLYLQMNSLRAEDTAVYYCARERNYDYDDYYYAMDYWGQGTLVTVSS VL: DIQMTQSPSSLSASVGDRVTITCKSSQSLLYRSNQKNYLAWYQQKPGKAPKLLIYWASTRESGVPSRFSGSGSGTDFTLTISSLQPEDFATYYCQQYYNYPRTFGQGTKVEIK | binds |  | 
2 | Molecule A: 2+1 IgG CrossFab inverted anti-STEAP1/anti-CD3 T cell bispecific (TCB) antibody with the vandortuzumab variable domains (bispecific antibody, Two STEAP1 Fabs (charge modifications EE/RK) and one CD3 CrossFab (VH/VL exchange), human IgG1 Fc with knob-into-hole and PGLALA; also called STEAP-1 TCB antibody) heavy 1: EVQLVESGGGLVQPGGSLRLSCAVSGYSITSDYAWNWVRQAPGKGLEWVGYISNSGSTSYNPSLKSRFTISRDTSKNTLYLQMNSLRAEDTAVYYCARERNYDYDDYYYAMDYWGQGTLVTVSSASTKGPSVFPLAPSSKSTSGGTAALGCLVEDYFPEPVTVSWNSGALTSGVHTFPAVLQSSGLYSLSSVVTVPSSSLGTQTYICNVNHKPSNTKVDEKVEPKSCDKTHTCPPCPAPEAAGGPSVFLFPPKPKDTLMISRTPEVTCVVVDVSHEDPEVKFNWYVDGVEVHNAKTKPREEQYNSTYRVVSVLTVLHQDWLNGKEYKCKVSNKALGAPIEKTISKAKGQPREPQVCTLPPSRDELTKNQVSLSCAVKGFYPSDIAVEWESNGQPENNYKTTPPVLDSDGSFFLVSKLTVDKSRWQQGNVFSCSVMHEALHNHYTQKSLSLSP heavy 2: not shown light 1: DIQMTQSPSSLSASVGDRVTITCKSSQSLLYRSNQKNYLAWYQQKPGKAPKLLIYWASTRESGVPSRFSGSGSGTDFTLTISSLQPEDFATYYCQQYYNYPRTFGQGTKVEIKRTVAAPSVFIFPPSDRKLKSGTASVVCLLNNFYPREAKVQWKVDNALQSGNSQESVTEQDSKDSTYSLSSTLTLSKADYEKHKVYACEVTHQGLSSPVTKSFNRGEC light 2: EVQLLESGGGLVQPGGSLRLSCAASGFTFSTYAMNWVRQAPGKGLEWVSRIRSKYNNYATYYADSVKGRFTISRDDSKNTLYLQMNSLRAEDTAVYYCVRHGNFGNSYVSWFAYWGQGTLVTVSSASVAAPSVFIFPPSDEQLKSGTASVVCLLNNFYPREAKVQWKVDNALQSGNSQESVTEQDSKDSTYSLSSTLTLSKADYEKHKVYACEVTHQGLSSPVTKSFNRGEC |  | 0.61 | 66%
3 | Molecule B: 2+1 IgG CrossFab inverted anti-STEAP1/anti-CD3 TCB antibody, D100aE mutation in both STEAP1 binding moieties (bispecific antibody, Same format as Molecule A; also called STEAP-1 TCB antibody variant (ED)) heavy 1: EVQLVESGGGLVQPGGSLRLSCAVSGYSITSDYAWNWVRQAPGKGLEWVGYISNSGSTSYNPSLKSRFTISRDTSKNTLYLQMNSLRAEDTAVYYCARERNYDYEDYYYAMDYWGQGTLVTVSSASTKGPSVFPLAPSSKSTSGGTAALGCLVEDYFPEPVTVSWNSGALTSGVHTFPAVLQSSGLYSLSSVVTVPSSSLGTQTYICNVNHKPSNTKVDEKVEPKSCDKTHTCPPCPAPEAAGGPSVFLFPPKPKDTLMISRTPEVTCVVVDVSHEDPEVKFNWYVDGVEVHNAKTKPREEQYNSTYRVVSVLTVLHQDWLNGKEYKCKVSNKALGAPIEKTISKAKGQPREPQVCTLPPSRDELTKNQVSLSCAVKGFYPSDIAVEWESNGQPENNYKTTPPVLDSDGSFFLVSKLTVDKSRWQQGNVFSCSVMHEALHNHYTQKSLSLSP heavy 2: not shown light 1: DIQMTQSPSSLSASVGDRVTITCKSSQSLLYRSNQKNYLAWYQQKPGKAPKLLIYWASTRESGVPSRFSGSGSGTDFTLTISSLQPEDFATYYCQQYYNYPRTFGQGTKVEIKRTVAAPSVFIFPPSDRKLKSGTASVVCLLNNFYPREAKVQWKVDNALQSGNSQESVTEQDSKDSTYSLSSTLTLSKADYEKHKVYACEVTHQGLSSPVTKSFNRGEC light 2: EVQLLESGGGLVQPGGSLRLSCAASGFTFSTYAMNWVRQAPGKGLEWVSRIRSKYNNYATYYADSVKGRFTISRDDSKNTLYLQMNSLRAEDTAVYYCVRHGNFGNSYVSWFAYWGQGTLVTVSSASVAAPSVFIFPPSDEQLKSGTASVVCLLNNFYPREAKVQWKVDNALQSGNSQESVTEQDSKDSTYSLSSTLTLSKADYEKHKVYACEVTHQGLSSPVTKSFNRGEC |  | 0.69 | 79%
4 | Molecule C: 2+1 IgG CrossFab inverted anti-STEAP1/anti-CD3 TCB antibody, D100bE mutation in both STEAP1 binding moieties (bispecific antibody, Same format as Molecule A; also called STEAP-1 TCB antibody variant (DE)) heavy 1: EVQLVESGGGLVQPGGSLRLSCAVSGYSITSDYAWNWVRQAPGKGLEWVGYISNSGSTSYNPSLKSRFTISRDTSKNTLYLQMNSLRAEDTAVYYCARERNYDYDEYYYAMDYWGQGTLVTVSSASTKGPSVFPLAPSSKSTSGGTAALGCLVEDYFPEPVTVSWNSGALTSGVHTFPAVLQSSGLYSLSSVVTVPSSSLGTQTYICNVNHKPSNTKVDEKVEPKSCDKTHTCPPCPAPEAAGGPSVFLFPPKPKDTLMISRTPEVTCVVVDVSHEDPEVKFNWYVDGVEVHNAKTKPREEQYNSTYRVVSVLTVLHQDWLNGKEYKCKVSNKALGAPIEKTISKAKGQPREPQVCTLPPSRDELTKNQVSLSCAVKGFYPSDIAVEWESNGQPENNYKTTPPVLDSDGSFFLVSKLTVDKSRWQQGNVFSCSVMHEALHNHYTQKSLSLSP heavy 2: not shown light 1: DIQMTQSPSSLSASVGDRVTITCKSSQSLLYRSNQKNYLAWYQQKPGKAPKLLIYWASTRESGVPSRFSGSGSGTDFTLTISSLQPEDFATYYCQQYYNYPRTFGQGTKVEIKRTVAAPSVFIFPPSDRKLKSGTASVVCLLNNFYPREAKVQWKVDNALQSGNSQESVTEQDSKDSTYSLSSTLTLSKADYEKHKVYACEVTHQGLSSPVTKSFNRGEC light 2: EVQLLESGGGLVQPGGSLRLSCAASGFTFSTYAMNWVRQAPGKGLEWVSRIRSKYNNYATYYADSVKGRFTISRDDSKNTLYLQMNSLRAEDTAVYYCVRHGNFGNSYVSWFAYWGQGTLVTVSSASVAAPSVFIFPPSDEQLKSGTASVVCLLNNFYPREAKVQWKVDNALQSGNSQESVTEQDSKDSTYSLSSTLTLSKADYEKHKVYACEVTHQGLSSPVTKSFNRGEC |  |  | 69%
5 | Molecule D: 2+1 IgG CrossFab inverted anti-STEAP1/anti-CD3 TCB antibody, D100aE/D100bE mutations in both STEAP1 binding moieties (bispecific antibody, Same format as Molecule A; also called STEAP-1 TCB antibody variant (EE)) heavy 1: EVQLVESGGGLVQPGGSLRLSCAVSGYSITSDYAWNWVRQAPGKGLEWVGYISNSGSTSYNPSLKSRFTISRDTSKNTLYLQMNSLRAEDTAVYYCARERNYDYEEYYYAMDYWGQGTLVTVSSASTKGPSVFPLAPSSKSTSGGTAALGCLVEDYFPEPVTVSWNSGALTSGVHTFPAVLQSSGLYSLSSVVTVPSSSLGTQTYICNVNHKPSNTKVDEKVEPKSCDKTHTCPPCPAPEAAGGPSVFLFPPKPKDTLMISRTPEVTCVVVDVSHEDPEVKFNWYVDGVEVHNAKTKPREEQYNSTYRVVSVLTVLHQDWLNGKEYKCKVSNKALGAPIEKTISKAKGQPREPQVCTLPPSRDELTKNQVSLSCAVKGFYPSDIAVEWESNGQPENNYKTTPPVLDSDGSFFLVSKLTVDKSRWQQGNVFSCSVMHEALHNHYTQKSLSLSP heavy 2: not shown light 1: DIQMTQSPSSLSASVGDRVTITCKSSQSLLYRSNQKNYLAWYQQKPGKAPKLLIYWASTRESGVPSRFSGSGSGTDFTLTISSLQPEDFATYYCQQYYNYPRTFGQGTKVEIKRTVAAPSVFIFPPSDRKLKSGTASVVCLLNNFYPREAKVQWKVDNALQSGNSQESVTEQDSKDSTYSLSSTLTLSKADYEKHKVYACEVTHQGLSSPVTKSFNRGEC light 2: EVQLLESGGGLVQPGGSLRLSCAASGFTFSTYAMNWVRQAPGKGLEWVSRIRSKYNNYATYYADSVKGRFTISRDDSKNTLYLQMNSLRAEDTAVYYCVRHGNFGNSYVSWFAYWGQGTLVTVSSASVAAPSVFIFPPSDEQLKSGTASVVCLLNNFYPREAKVQWKVDNALQSGNSQESVTEQDSKDSTYSLSSTLTLSKADYEKHKVYACEVTHQGLSSPVTKSFNRGEC |  | 0.65 | 100%
